# ± gives the uncertainty stated by the source.
# Experiment: protein stability index of a GFP-peptide fusion (yeast GPS) (PSI 1-4); higher = more stable; sorted into four equal gates, so the index is relative within each strain
# Outline: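 Tiled 17-residue yeast protein peptides were fused downstream of GFP in a plasmid that also expresses Cherry, and the pooled library was carried in yeast. Mid-log cultures in leucine-free medium were sorted into four equal gates by GFP/Cherry fluorescence ratio, and plasmids from each gate were PCR-amplified and Illumina-sequenced, with reads assigned to strains by barcodes. The protein stability index for each peptide was each gate's read frequency times its gate number, summed.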
sequence,measurement,setting,value
KILGKGRIPNVPVIVKA [RPL28],protein stability index,doa10∆,2.35 ± 0.065
same,protein stability index,pdr5∆,1.87 ± 0.081
same,protein stability index,san1∆,2.37 ± 0.085
same,protein stability index,ubr1∆,3.24 ± 0.054
NLMILNTKVPVDIVNQW [YML103C/NUP188],protein stability index,doa10∆,1.68 ± 0.071
same,protein stability index,pdr5∆,2.12 ± 0.084
same,protein stability index,san1∆,1.84 ± 0.13
same,protein stability index,ubr1∆,2.08 ± 0.055
KKWPQFYAAVQKNYADP [SIN4],protein stability index,doa10∆,1.5 ± 0.07
same,protein stability index,pdr5∆,2.09 ± 0.084
same,protein stability index,san1∆,2.77 ± 0.13
same,protein stability index,ubr1∆,2.18 ± 0.075
TKLIQYEHNGRTLEAIT [CSL4],protein stability index,doa10∆,2.22 ± 0.049
same,protein stability index,pdr5∆,2.48 ± 0.044
same,protein stability index,san1∆,2.38 ± 0.055
same,protein stability index,ubr1∆,2.29 ± 0.034
SGWTPFHIACSVGNLEV [NAS6],protein stability index,doa10∆,1.8 ± 0.095
same,protein stability index,pdr5∆,1.89 ± 0.074
same,protein stability index,san1∆,1.68 ± 0.1
same,protein stability index,ubr1∆,1.94 ± 0.11
SKMLDAASSQVSIVKLD [SNF12],protein stability index,doa10∆,2.89 ± 0.086
same,protein stability index,pdr5∆,2.89 ± 0.11
same,protein stability index,san1∆,3.03 ± 0.096
same,protein stability index,ubr1∆,2.95 ± 0.091
AEEFVAGVSHGTLGEIF [SMX3],protein stability index,ubr1∆,3.57 ± 0.28
FNELCDPESRTQSYNNQ [POP1],protein stability index,doa10∆,3.09 ± 0.14
same,protein stability index,pdr5∆,3.02 ± 0.12
same,protein stability index,san1∆,2.95 ± 0.11
same,protein stability index,ubr1∆,2.96 ± 0.084
FGWLLSDNSVSVRLQVT [IRR1],protein stability index,doa10∆,1.26 ± 0.078
same,protein stability index,pdr5∆,1.32 ± 0.095
same,protein stability index,san1∆,1.19 ± 0.23
same,protein stability index,ubr1∆,1.13 ± 0.13
SSSANKLLQLFLTPMDS [YML103C/NUP188],protein stability index,doa10∆,1.81 ± 0.052
same,protein stability index,pdr5∆,1.61 ± 0.059
same,protein stability index,san1∆,1.64 ± 0.085
same,protein stability index,ubr1∆,1.41 ± 0.042
TQSGGVRPFGVSTLIAG [PRE6],protein stability index,doa10∆,1.5 ± 0.14
same,protein stability index,pdr5∆,1.72 ± 0.12
same,protein stability index,san1∆,1.75 ± 0.17
same,protein stability index,ubr1∆,1.43 ± 0.081
PRETIPFLHLRKKTPAG [FAS2],protein stability index,doa10∆,2.73 ± 0.13
same,protein stability index,pdr5∆,2.43 ± 0.1
same,protein stability index,san1∆,2.63 ± 0.13
same,protein stability index,ubr1∆,2.78 ± 0.094
NVRSVIRSSRSRGIVIG [RPP1],protein stability index,doa10∆,3 ± 0.076
same,protein stability index,pdr5∆,3.1 ± 0.078
same,protein stability index,san1∆,3.15 ± 0.16
same,protein stability index,ubr1∆,3.2 ± 0.072
IDYKLRVLTQDGRVYIG [SMB1],protein stability index,doa10∆,2.49 ± 0.09
same,protein stability index,pdr5∆,2.71 ± 0.076
same,protein stability index,san1∆,1.67 ± 0.11
same,protein stability index,ubr1∆,2.5 ± 0.048
LSKRQKRKSAQEPELSL [SMC4],protein stability index,doa10∆,3.17 ± 0.11
same,protein stability index,pdr5∆,3.15 ± 0.078
same,protein stability index,san1∆,3.09 ± 0.097
same,protein stability index,ubr1∆,3.4 ± 0.1
VQDKDTLSNAERAKNVN [GAL11],protein stability index,pdr5∆,2.71 ± 0.23
same,protein stability index,san1∆,2.71 ± 0.18
same,protein stability index,ubr1∆,2.91 ± 0.12
PAHTVIIKGTDVYSPEK [BRR2],protein stability index,doa10∆,3.02 ± 0.055
same,protein stability index,pdr5∆,3.19 ± 0.077
same,protein stability index,san1∆,2.54 ± 0.072
same,protein stability index,ubr1∆,2.68 ± 0.055
NFESISARSSVHESLVT [SRB8],protein stability index,doa10∆,2.49 ± 0.052
same,protein stability index,pdr5∆,2.1 ± 0.039
same,protein stability index,san1∆,2.17 ± 0.062
same,protein stability index,ubr1∆,2.26 ± 0.027
DHTVDEIDHVEYYVMMD [SRB8],protein stability index,doa10∆,3.01 ± 0.083
same,protein stability index,pdr5∆,2.63 ± 0.062
same,protein stability index,san1∆,2.96 ± 0.081
same,protein stability index,ubr1∆,3.02 ± 0.047
PGSSITETEVEREQPQE [SRB4],protein stability index,doa10∆,3.09 ± 0.093
same,protein stability index,pdr5∆,3.38 ± 0.12
same,protein stability index,san1∆,3.07 ± 0.075
same,protein stability index,ubr1∆,3.35 ± 0.078
SILEHSGIRLIEPELFN [FAS2],protein stability index,doa10∆,2.67 ± 0.068
same,protein stability index,pdr5∆,2.99 ± 0.061
same,protein stability index,san1∆,2.76 ± 0.058
same,protein stability index,ubr1∆,2.86 ± 0.039
LYLKVIPMDFIRNVLVT [SSN2],protein stability index,doa10∆,1.36 ± 0.094
same,protein stability index,pdr5∆,1.11 ± 0.16
same,protein stability index,san1∆,1.4 ± 0.23
same,protein stability index,ubr1∆,1.29 ± 0.16
QHEQGTFEKHDRVEDIC [RRI2],protein stability index,doa10∆,2.89 ± 0.091
same,protein stability index,ubr1∆,2.97 ± 0.13
PFFSSNTSSLQSFQNPF [YIL149C/MLP2],protein stability index,doa10∆,2.93 ± 0.058
same,protein stability index,pdr5∆,2.25 ± 0.055
same,protein stability index,san1∆,2.69 ± 0.05
same,protein stability index,ubr1∆,2.81 ± 0.033
NSSSSTPNTNSNSTPNA [SWI1],protein stability index,doa10∆,2.96 ± 0.087
same,protein stability index,pdr5∆,2.98 ± 0.09
same,protein stability index,san1∆,3.12 ± 0.069
same,protein stability index,ubr1∆,3.21 ± 0.059
KQLQQPKSSPLKKNNYN [SIR4],protein stability index,doa10∆,3.03 ± 0.089
same,protein stability index,pdr5∆,2.98 ± 0.068
same,protein stability index,san1∆,3.1 ± 0.039
same,protein stability index,ubr1∆,3.07 ± 0.039
QFNAQGVRDINCVNDVL [POP1],protein stability index,doa10∆,2.92 ± 0.17
same,protein stability index,pdr5∆,2.92 ± 0.17
same,protein stability index,san1∆,2.91 ± 0.11
AILYTKPGHVLQEEWDQ [YGR119C/NUP57],protein stability index,pdr5∆,3.25 ± 0.14
same,protein stability index,ubr1∆,3.81 ± 0.23
QRRTNNSGVGSAKGPEI [MED6],protein stability index,san1∆,3.23 ± 0.19
